Assay results as given in publication doi:10.1101/2020.06.03.132209 (bioRxiv, 2020).

Molecular target: T1, Dehydrodolichyl diphosphate synthase (DHDDS), full length (1-333), untagged (human, UniProt Q86SQ9-1 1-333)
T1 sequence: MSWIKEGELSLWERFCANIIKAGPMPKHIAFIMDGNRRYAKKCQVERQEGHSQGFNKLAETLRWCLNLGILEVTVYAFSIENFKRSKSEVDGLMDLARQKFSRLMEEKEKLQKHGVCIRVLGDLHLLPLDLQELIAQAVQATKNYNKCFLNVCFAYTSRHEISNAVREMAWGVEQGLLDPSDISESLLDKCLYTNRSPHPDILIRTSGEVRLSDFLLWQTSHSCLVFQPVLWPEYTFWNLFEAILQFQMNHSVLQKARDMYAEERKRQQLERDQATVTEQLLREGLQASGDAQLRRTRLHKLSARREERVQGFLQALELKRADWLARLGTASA
Assay: crystal structure

B1: NgBR^79-293 (Nogo-B receptor, N-terminal 78 amino acids deleted) (domain or fragment)
chain: AAAHHRMRWRADGRSLEKLPVHMGLVITEVEQEPSFSDIASLVVWCMAVGISYISVYDHQGIFKRNNSRLMDEILKQQQELLGLDCSKYSPEFANSNDKDDQVLNCHLAVKVLSPEDGKADIVRAAQDFCQLVAQKQKRPTDLDVDTLASLLSSNGCPDPDLVLKFGPVDSTLGFLPWHIRLTEIVSLPSHLNISYEDFFSALRQYAACEQRLGK
binding result: binds
